Results on two substances are retold here after publication doi:10.1101/551788.

The assay concerns the target Tom20.CIB.GFP (not stated | A. thaliana). The experiment in a line: light-induced recruitment to mitochondria.

Substance “Cry2(1-531).L348F.mCh (from UniProt Q96524 1-531) (domain or fragment)” registered a half-life of association with the OMM of 32.8 min.

As for “Cry2(1-531).mCh (from UniProt Q96524 1-531) (domain or fragment)”, the half-life of association with the OMM came out at 6.25 min.
